The results in this text go back to paper PMC4447949, “Structures of the Ets Protein DNA-binding Domains of Transcription Factors Etv1, Etv4, Etv5, and Fev” (The Journal of Biological Chemistry, 2015).

Holding throughout (conditions): protein: recombinant; tags: N-terminal His6 removed by TEV (leaves SM); blunt
One series deals with Etv1 C416S (human, UniProt P50549 326-429, C416S). The series can be described thus: EMSA; 0.1 nM probe; EMSA: 50 mM Tris-HCl pH 7.5, 50 mM NaCl, 2 mM MgCl2, 0.01% Tween 20, 5% glycerol, 1 h at room temperature; proteins reduced with 10 mM TCEP unless stated; 10% native PAGE. For orientation: A gel shift assay detects complexes by their altered migration in electrophoresis.
Chain of Etv1 C416S (P50549 326-429 C416S): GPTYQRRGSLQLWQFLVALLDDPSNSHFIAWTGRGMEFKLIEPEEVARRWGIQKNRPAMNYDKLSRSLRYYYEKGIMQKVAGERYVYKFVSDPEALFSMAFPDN
A further series concerns the target Etv1 D387A (human, UniProt P50549 326-429, D387A). Briefly: EMSA; 0.1 nM probe; 10 mM TCEP; EMSA: 50 mM Tris-HCl pH 7.5, 50 mM NaCl, 2 mM MgCl2, 0.01% Tween 20, 5% glycerol, 1 h at room temperature; proteins reduced with 10 mM TCEP unless stated; 10% native PAGE.
Another series concerns the target Etv1 Y395F (human, UniProt P50549 326-429, Y395F). The series is described as above.
The target of another series is Etv1 Y329S-P427S (human, UniProt P50549 326-429, Y329S;P427S). The description is as above.
Chain of Etv1 Y329S-P427S (P50549 326-429 Y329S/P427S): as the sequence (P50549 326-429 C416S) above, with Y4S, S91C, P102S counted along it
In the next series the target is Etv1 R391A (human, UniProt P50549 326-429, R391A). The description is as above.
Chain of Etv1 R391A (P50549 326-429 R391A): as the sequence (P50549 326-429 C416S) above, with R66A, S91C counted along it
For a further series, the target named is Etv1 K379A (human, UniProt P50549 326-429, K379A). Briefly: EMSA; 2 nM and 0.1 nM probe; EMSA: 50 mM Tris-HCl pH 7.5, 50 mM NaCl, 2 mM MgCl2, 0.01% Tween 20, 5% glycerol, 1 h at room temperature; proteins reduced with 10 mM TCEP unless stated; 10% native PAGE.
Chain of Etv1 K379A (P50549 326-429 K379A): as the sequence (P50549 326-429 C416S) above, with K54A, S91C counted along it

Chain of Etv1 D387A (P50549 326-429 D387A): as the sequence (P50549 326-429 C416S) above, with D62A, S91C counted along it
Chain of Etv1 Y395F (P50549 326-429 Y395F): as the sequence (P50549 326-429 C416S) above, with Y70F, S91C counted along it

B1: Etv1ALF/Etv1ALR EMSA probe (dsDNA)
DNA 1: ATCTCACCGGAAGTGTAGCA
DNA 2: TGCTACACTTCCGGTGAGAT
For the molecule B1, the dissociation constant (Kd) (in general, the equilibrium constant for the complex coming apart) with Etv1 C416S worked out at 0.26 ± 0.06 nM; with Etv1 D387A it was 0.19 ± 0.03 nM; in the series with Etv1 Y395F it was 1.35 ± 1.05 nM; with Etv1 Y329S-P427S it was 0.31 ± 0.06 nM; with Etv1 R391A it was 8.6 ± 1.68 nM. Besides, the binding result with Etv1 K379A was “no binding”.
